This is an account of results in article doi:10.1101/2021.05.23.445325 (bioRxiv, 2021).

In one experiment the target is T1, 6His-NXF1 1-198 (UniProt Q9UBU9 1-198).
T1 sequence (looked up): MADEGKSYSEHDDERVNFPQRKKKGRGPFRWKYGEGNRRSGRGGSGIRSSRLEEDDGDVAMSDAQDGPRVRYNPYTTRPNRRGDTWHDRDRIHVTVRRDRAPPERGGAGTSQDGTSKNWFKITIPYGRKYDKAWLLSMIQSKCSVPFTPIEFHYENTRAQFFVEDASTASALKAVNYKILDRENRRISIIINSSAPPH
Briefly: ITC. For orientation: Isothermal titration calorimetry measures the heat released or taken up as one component is titrated into another.

A further experiment concerns the target T2, GST-NXF1:p15 complex (UniProt Q9UBU9 1-619; Q9UKK6 1-140).
T2 sequence (looked up) 1: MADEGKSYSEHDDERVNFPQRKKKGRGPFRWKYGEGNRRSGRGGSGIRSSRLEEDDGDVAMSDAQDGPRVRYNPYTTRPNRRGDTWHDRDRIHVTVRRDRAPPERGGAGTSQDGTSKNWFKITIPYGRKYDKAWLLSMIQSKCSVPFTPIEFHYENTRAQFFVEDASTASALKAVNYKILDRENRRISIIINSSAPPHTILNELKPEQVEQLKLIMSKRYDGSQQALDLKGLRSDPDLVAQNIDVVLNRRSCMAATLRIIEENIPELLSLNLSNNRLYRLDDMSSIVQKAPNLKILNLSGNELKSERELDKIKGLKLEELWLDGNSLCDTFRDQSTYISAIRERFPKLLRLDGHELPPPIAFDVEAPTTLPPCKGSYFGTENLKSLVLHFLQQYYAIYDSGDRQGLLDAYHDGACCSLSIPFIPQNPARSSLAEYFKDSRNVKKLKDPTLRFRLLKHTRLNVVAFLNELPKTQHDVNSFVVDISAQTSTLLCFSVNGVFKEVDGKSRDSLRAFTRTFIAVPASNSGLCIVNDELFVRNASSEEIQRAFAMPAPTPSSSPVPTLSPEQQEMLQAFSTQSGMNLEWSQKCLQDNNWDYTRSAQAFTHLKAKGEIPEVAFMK
T2 sequence (looked up) 2: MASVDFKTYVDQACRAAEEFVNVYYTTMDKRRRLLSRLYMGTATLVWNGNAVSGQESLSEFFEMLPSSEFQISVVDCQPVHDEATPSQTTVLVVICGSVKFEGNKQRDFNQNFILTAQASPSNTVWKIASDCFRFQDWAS
Kind of experiment: pull-down.

No end group written: not given here.

For the molecule PASGAGTGRGGGGGGGGGAPRGRYGPPSAASE (peptide, UniProt Q07955 89-120, looked up, also: FAM label, position not given here) [SRSF1 aa 89-120 m4-mutant peptide], the “fold reduction of affinity against SRSF1 WT-CPP” value with 6His-NXF1 1-198 was around 10 fold.

As to PRSGRGTGRGGGGGGGGGAPRGRYGPPSRRSE (peptide, UniProt Q07955 89-120, looked up, also: FAM label, position not given here) [SRSF1 aa 89-120 wild-type peptide], the binding result with 6His-NXF1 1-198 is reported as “binds”.

Consider PRSGRGTGRGGGGGGGGGAPRGRYGPPSRRSEYGRKKRRQRRR (peptide, UniProt Q07955 89-120, looked up) [SRSF1 WT-CPP (SRSF1 aa89-120, V5 tag, TAT protein transduction domain)], for which, in the experiment with 6His-NXF1 1-198, the “fold increase of affinity against the wild-type SRSF1 peptide” value worked out at 5 fold.

B1: SRSF1 (amino-acids 11-196), 6His-tagged (domain or fragment, UniProt Q07955 11-196, looked up)
chain: AGNNDCRIYVGNLPPDIRTKDIEDVFYKYGAIRDIDLKNRRGGPPFAFVEFEDPRDAEDAVYGRDGYDYDGYRLRVEFPRSGRGTGRGGGGGGGGGAPRGRYGPPSRRSENRVVVSGLPPSGSWQDLKDHMREAGDVCYADVYRDGTGVVEFVRKEDMTYAVRKLDNTKFRSHEGETAYIRVKVDG
On to B1, for which, in the experiment with GST-NXF1:p15 complex, the binding result was “binds”.
